This note sets out measurements from paper PMC3953333, “Sterol Regulatory Element-Binding Proteins Are Regulators of the Rat Thyroid Peroxidase Gene in Thyroid Cells”.

The labels stand for the following.
T1: nuclear SREBP-2 (nSREBP-2) (rat, UniProt Q3T1I5 1-476)
T1 sequence: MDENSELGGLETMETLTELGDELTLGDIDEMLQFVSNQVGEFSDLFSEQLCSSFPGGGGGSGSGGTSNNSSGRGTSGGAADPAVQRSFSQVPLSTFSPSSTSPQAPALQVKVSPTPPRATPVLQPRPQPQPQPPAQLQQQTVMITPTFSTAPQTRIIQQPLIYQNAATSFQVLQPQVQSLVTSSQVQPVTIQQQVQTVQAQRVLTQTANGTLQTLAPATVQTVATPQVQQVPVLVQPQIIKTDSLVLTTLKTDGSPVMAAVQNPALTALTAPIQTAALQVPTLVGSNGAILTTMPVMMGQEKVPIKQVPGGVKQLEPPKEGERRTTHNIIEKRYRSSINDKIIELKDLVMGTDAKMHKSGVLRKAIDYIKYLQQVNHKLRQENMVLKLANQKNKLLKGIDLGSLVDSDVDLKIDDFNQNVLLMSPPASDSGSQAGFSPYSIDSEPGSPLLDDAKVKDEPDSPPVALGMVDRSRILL

T2: nuclear SREBP-1c (nSREBP-1c) (rat, UniProt P56720-1 1-456)
T2 sequence: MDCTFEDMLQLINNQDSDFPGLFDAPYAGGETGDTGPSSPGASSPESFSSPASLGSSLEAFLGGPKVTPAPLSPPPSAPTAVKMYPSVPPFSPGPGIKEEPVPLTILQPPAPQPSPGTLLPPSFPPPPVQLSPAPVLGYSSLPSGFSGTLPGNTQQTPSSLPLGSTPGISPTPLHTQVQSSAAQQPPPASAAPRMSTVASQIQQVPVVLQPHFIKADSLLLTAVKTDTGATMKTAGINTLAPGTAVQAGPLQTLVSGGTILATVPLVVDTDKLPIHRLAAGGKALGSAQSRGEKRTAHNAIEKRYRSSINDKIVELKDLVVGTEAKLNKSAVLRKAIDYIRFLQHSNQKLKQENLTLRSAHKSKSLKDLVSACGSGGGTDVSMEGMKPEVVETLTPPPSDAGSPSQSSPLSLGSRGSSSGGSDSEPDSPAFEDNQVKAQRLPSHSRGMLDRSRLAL

B1: rTPO III mut2 (dsDNA)
DNA 1: AGCTGATAATCAGAAAGTCGTATTAATACT
DNA 2: TCGAAGTATTAATACGACTTTCTGATTATC
B2: rTPO III mut5 (dsDNA)
DNA 1: AGCTTCGTTTCAGAAAGTCAGCAGAATACT
DNA 2: TCGAAGTATTCTGCTGACTTTCTGAAACGA
B3: rTPO IV (dsDNA)
DNA 1: AGCTATACTGTGGGATGTACCATA
DNA 2: TCGATATGGTACATCCCACAGTAT
B4: rTPO III mut1 (dsDNA)
DNA 1: AGCTGATAATCAGAAAGTCAGCAGTTCTAG
DNA 2: TCGACTAGAACTGCTGACTTTCTGATTATC
B5: rTPO VI mut3 (dsDNA)
DNA 1: AGCTCAGGCCTCTCCTCAGACTAATCCTCCCAAGT
DNA 2: TCGAACTTGGGAGGATTAGTCTGAGGAGAGGCCTG
B6: rTPO III (dsDNA)
DNA 1: AGCTGATAATCAGAAAGTCAGCAGAATACT
DNA 2: TCGAAGTATTCTGCTGACTTTCTGATTATC
B7: rTPO II (dsDNA)
DNA 1: AGCTTTGCAGTGGGGAAGAGATAA
DNA 2: TCGATTATCTCTTCCCCACTGCAA
B8: rTPO VI mut2 (dsDNA)
DNA 1: AGCTCAGGCCTCTCCTCAGGTGGGGTTGACCAAGT
DNA 2: TCGAACTTGGTCAACCCCACCTGAGGAGAGGCCTG
B9: rTPO VI mut1 (dsDNA)
DNA 1: AGCTCAGGCCTCTCCTCAGGTGGGTCCTCATGGCT
DNA 2: TCGAAGCCATGAGGACCCACCTGAGGAGAGGCCTG
B10: rTPO VI (dsDNA)
DNA 1: AGCTCAGGCCTCTCCTCAGGTGGGTCCTCCCAAGT
DNA 2: TCGAACTTGGGAGGACCCACCTGAGGAGAGGCCTG
B11: rTPO III mut3 (dsDNA)
DNA 1: AGCTGATAATCAGATTCGAAGCAGAATACT
DNA 2: TCGAAGTATTCTGCTTCGAATCTGATTATC
B12: rTPO VI mut4 (dsDNA)
DNA 1: AGCTCAGGCCTCTCAGATAGTGGGTCCTCCCAAGT
DNA 2: TCGAACTTGGGAGGACCCACTATCTGAGAGGCCTG
B13: rTPO V (dsDNA)
DNA 1: AGCTGTGGGATGTACCATAAATACCCAGG
DNA 2: TCGACCTGGGTATTTATGGTACATCCCAC
B14: rTPO VI mut5 (dsDNA)
DNA 1: AGCTCAGGCGGAAACTCAGGTGGGTCCTCCCAAGT
DNA 2: TCGAACTTGGGAGGACCCACCTGAGTTTCCGCCTG
B15: rTPO III mut4 (dsDNA)
DNA 1: AGCTGATAAGATTCAAGTCAGCAGAATACT
DNA 2: TCGAAGTATTCTGCTGACTTGAATCTTATC
B16: rTPO VI mut6 (dsDNA)
DNA 1: AGCTTGTAACTCTCCTCAGGTGGGTCCTCCCAAGT
DNA 2: TCGAACTTGGGAGGACCCACCTGAGGAGAGTTACA
B17: rTPO I (dsDNA)
DNA 1: GATCTCTGGGGTTGCAGTGGGGAAGA
DNA 2: TCGATCTTCCCCACTGCAACCCCAGA
B18: rTPO IVmut (dsDNA)
DNA 1: AGCTATACTGTGTTACTTACCATA
DNA 2: TCGATATGGTAAGTAACACAGTAT

One series addresses T1, nuclear SREBP-2 (nSREBP-2). Description: EMSA; EMSA with DIG-labeled annealed oligonucleotides (Roche DIG Gel Shift Kit, 2nd Generation) and TNT T7 in vitro-translated proteins; buffer, salt, pH and temperature not stated (ref 19). The conditions noted are these: protein: ivt; chain copies: 2; label: DIG end-label; 5' overhangs 4 nt (AGCT / TCGA). (In EMSA bound probe runs differently from free probe, usually more slowly.)
For the molecule B1, the binding result is on record as “no binding”.

For the molecule B2, the binding result is recorded as “binds”.

Regarding B3, the binding result was “no binding”.

As for B4, the binding result is “binds”.

Take B5: the binding result was “binds”.

As for B6, the binding result is on record as “binds”.

Regarding B7, the binding result is “no binding”.

Regarding B8, the binding result is given as “binds”.

Take B9: the binding result was “binds”.

With B10, the binding result is “binds”.

On to B11, for which the binding result is reported as “no binding”.

In the case of B12, the binding result is “no binding”.

In the case of B13, the binding result is “no binding”.

Turning to B14, the binding result was “binds”.

Turning to B15, the binding result is on record as “binds”.

Take B16: the binding result is on record as “binds”.

The same series, now with this note: protein: ivt; chain copies: 2; label: DIG end-label; 5' overhangs 4 nt (GATC / TCGA).
For the molecule B17, the binding result was “no binding”.

The next series addresses T2, nuclear SREBP-1c (nSREBP-1c). Described as above. The conditions noted are these: protein: ivt; chain copies: 2; label: DIG end-label; 5' overhangs 4 nt (AGCT / TCGA).
As for B1, the binding result is on record as “no binding”.

Consider B2, for which the binding result was “binds”.

For B3, the binding result is “binds”.

On to B4, for which the binding result was “binds”.

B5: the binding result is recorded as “binds”.

B6: the binding result is listed as “binds”.

For the molecule B7, the binding result is “no binding”.

In the case of B8, the binding result is reported as “binds”.

As to B9, the binding result is “binds”.

Turning to B18, the binding result is listed as “no binding”.

With B10, the binding result was “binds”.

B11: the binding result is on record as “no binding”.

For B12, the binding result is recorded as “no binding”.

Take B13: the binding result is recorded as “no binding”.

As for B14, the binding result is “binds”.

For B15, the binding result is on record as “binds”.

Regarding B16, the binding result is given as “binds”.

Still in this series, the particulars now being: protein: ivt; chain copies: 2; label: DIG end-label; 5' overhangs 4 nt (GATC / TCGA).
With B17, the binding result is listed as “no binding”.
